B2: Ddc1 (natural protein)
chain: MSFKATITESGKQNIWFRAIYVLSTIQDDIKITVTTNELIAWSMNETDTTLCQVRFQKSFFEEYEFKPHEIVFGENGVQVIEDTYGNSHKLYSFRVNGRHLTTISRKPDGDGIKSFTIAVNNTSTCPESLANRLIVVIEMDSLIVKEYCPQFQPIKYDPIIINLKYKRRFLDVFGTAASDRNPQEPLDPKLLDVFTNTERELTSALFNEEVESDIRKRNQLTAADEINYICCNSTLLKNFLDNCNVNVTDEVKLEINVHRLSITAFTKAVYGKNNDLLRNALSMSNTISTLDLEHYCLFTTIEDEKQDKRSHSKRREHMKSIIFKLKDFKNFITIGPSWKTTQDGNDNISLWFCHPGDPILMQMQKPGVKLELVEVTDSNINDDILEGKFIKTAISGSKEEAGLKDNKESCESPLKSKTALKRENLPHSVAGTRNSPLKVSYLTPDNGSTVAKTYRNNTARKLFVEEQSQSTNYEQDKRFRQASSVHMNMNREQSFDIGTTHEVACPRNESNSLKRSIADICNETEDPTQQSTFAKRADTTVTWGKALPAADDEVSCSNIDRKGMLKKEKLKHMQGLLNSQNDTSNHKKQDNKEMEDGLGLTQVEKPRGIFD

What all share (experiment): cryo-EM structure
One assay addresses T1, Rad17 (S. cerevisiae, UniProt P48581 1-401).
T1 sequence: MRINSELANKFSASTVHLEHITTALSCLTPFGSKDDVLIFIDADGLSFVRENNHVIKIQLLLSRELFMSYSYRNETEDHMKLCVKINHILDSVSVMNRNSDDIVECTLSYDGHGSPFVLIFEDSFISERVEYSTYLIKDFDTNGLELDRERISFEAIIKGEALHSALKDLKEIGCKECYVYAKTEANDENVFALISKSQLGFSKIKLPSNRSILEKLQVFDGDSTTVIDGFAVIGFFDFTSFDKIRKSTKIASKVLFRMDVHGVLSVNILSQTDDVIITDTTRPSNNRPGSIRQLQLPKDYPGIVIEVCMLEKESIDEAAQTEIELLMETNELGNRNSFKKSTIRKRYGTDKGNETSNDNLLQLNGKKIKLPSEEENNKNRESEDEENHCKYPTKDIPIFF

A further assay concerns the target T2, Rad24 (S. cerevisiae, UniProt P32641 1-659).
T2 sequence: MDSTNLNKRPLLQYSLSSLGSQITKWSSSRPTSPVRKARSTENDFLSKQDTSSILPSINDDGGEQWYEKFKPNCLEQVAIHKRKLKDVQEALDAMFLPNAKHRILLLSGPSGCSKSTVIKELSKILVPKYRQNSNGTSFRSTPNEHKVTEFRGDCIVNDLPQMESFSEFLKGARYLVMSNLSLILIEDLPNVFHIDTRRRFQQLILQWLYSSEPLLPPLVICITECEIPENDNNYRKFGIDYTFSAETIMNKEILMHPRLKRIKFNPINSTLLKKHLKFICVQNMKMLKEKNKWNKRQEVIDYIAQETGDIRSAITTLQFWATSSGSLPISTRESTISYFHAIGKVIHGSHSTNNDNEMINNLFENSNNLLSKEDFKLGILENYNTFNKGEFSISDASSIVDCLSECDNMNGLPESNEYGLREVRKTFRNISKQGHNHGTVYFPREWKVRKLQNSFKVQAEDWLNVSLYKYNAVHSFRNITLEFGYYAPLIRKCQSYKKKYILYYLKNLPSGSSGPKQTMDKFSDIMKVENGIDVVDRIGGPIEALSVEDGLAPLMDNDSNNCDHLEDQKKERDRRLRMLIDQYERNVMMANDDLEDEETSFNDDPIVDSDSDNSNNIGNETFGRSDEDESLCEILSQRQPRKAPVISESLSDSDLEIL

The assay “Ddc1” concerns the target B2.

B1: Rfc3 (natural protein)
chain: MSTSTEKRSKENLPWVEKYRPETLDEVYGQNEVITTVRKFVDEGKLPHLLFYGPPGTGKTSTIVALAREIYGKNYSNMVLELNASDDRGIDVVRNQIKDFASTRQIFSKGFKLIILDEADAMTNAAQNALRRVIERYTKNTRFCVLANYAHKLTPALLSRCTRFRFQPLPQEAIERRIANVLVHEKLKLSPNAEKALIELSNGDMRRVLNVLQSCKATLDNPDEDEISDDVIYECCGAPRPSDLKAVLKSILEDDWGTAHYTLNKVRSAKGLALIDLIEGIVKILEDYELQNEETRVHLLTKLADIEYSISKGGNDQIQGSAVIGAIKASFENETVKANV
Turning to B1, the binding result in the assay with Rad17 was “binds”.

With B2, in the assay with Rad24, the binding result is given as “binds”.

B3: Rfc2 (natural protein)
chain: MFEGFGPNKKRKISKLAAEQSLAQQPWVEKYRPKNLDEVTAQDHAVTVLKKTLKSANLPHMLFYGPPGTGKTSTILALTKELYGPDLMKSRILELNASDERGISIVREKVKNFARLTVSKPSKHDLENYPCPPYKIIILDEADSMTADAQSALRRTMETYSGVTRFCLICNYVTRIIDPLASRCSKFRFKALDASNAIDRLRFISEQENVKCDDGVLERILDISAGDLRRGITLLQSASKGAQYLGDGKNITSTQVEELAGVVPHDILIEIVEKVKSGDFDEIKKYVNTFMKSGWSAASVVNQLHEYYITNDNFDTNFKNQISWLLFTTDSRLNNGTNEHIQLLNLLVKISQL
In the case of B3, the binding result with Ddc1 is listed as “binds”.

B4: His-PK-Mec3 (natural protein)
chain: MKLKLIVNGCEAPDDYKLLRTTINTVASLRKTAILRFNSERLTIISTPKSSLNSSNNGTILRGDTGQLWCTIPHDVFRLYTVISARELNTITMECNCDSLLSVFKRYDRVMNQGSSSNMTIKLQSMPEWNTNNGTLSGGTAGGVDTTSKPNPICALGITFEEIVHTSGPNDAIVMNGGVDEHNGLPTTVGTGNLLASNKVIMHSFKVPVKLLFRAQDTRIQEPMINYIQLMMYKLPPISGEFGSAFHGFIRRVERYSNVNHIHLMGVKKKEHGNEGDDVELKIIVNELDWHLEICWNGPLDSVIQRQEGLTDNPSQNQHIDTDGRQEEGSLPIIEADKPMSSLYTNTRDREMEENIRYDEDLLRIEDSSIADTRGNIYTADTSGDTEFNDISVMVEKAEQESSSTHEVIIRCKDWKVCSKLYAAFEEVVLAISHDESCVFHCSLDRGSLEDSEDVEKPRERGQIIYYIARSKGL
Turning to B4, the binding result with Ddc1 is on record as “binds”.

B5: Rfc4 (natural protein)
chain: MSKTLSLQLPWVEKYRPQVLSDIVGNKETIDRLQQIAKDGNMPHMIISGMPGIGKTTSVHCLAHELLGRSYADGVLELNASDDRGIDVVRNQIKHFAQKKLHLPPGKHKIVILDEADSMTAGAQQALRRTMELYSNSTRFAFACNQSNKIIEPLQSRCAILRYSKLSDEDVLKRLLQIIKLEDVKYTNDGLEAIIFTAEGDMRQAINNLQSTVAGHGLVNADNVFKIVDSPHPLIVKKMLLASNLEDSIQILRTDLWKKGYSSIDIVTTSFRVTKNLAQVKESVRLEMIKEIGLTHMRILEGVGTYLQLASMLAKIHKLNNKA
Turning to B5, the binding result with Rad17 and in the assay with Rad24 was “binds” in each case.
